Test results: patent US20220363769A1 (SORRISO PHARMACEUTICALS, published 2022)
Like-named read-outs stand apart in the source and are kept apart here. Each block holds one binder with its values, some of them ahead of it.

B2: ID-A40U (VHH)
VHH: EVQLVESGGGLVQAGGSLRLSCESSISTFSSDAMGWFRQAPGKEREFLAAIGWSGAVTHYSDSVKGRFTISRDNAKNTVYLQMNSLRAEDTGRYYCAEDYDTDVWQYWGQGTQVTVSS
notes: V7R-2E9 with Q65K, K87R, S88A; produced in E. coli; also called A40U-F/H; not shown: Flag-His6 tag
B3: ID-A59U (VHH)
VHH: DVQLVESGGGLVQAGGSLRLSCESSISTFSSDAMGWFRQAPGKEREFLAAIGWSGAVTHYSDSVKGRFTISRDNAKNTVYLQMNSLRAEDTGRYYCAEDYDTDVWQYWGQGTQVTVSS
notes: V7R-2E9 with E1D, Q65K, K87R, S88A; S. cerevisiae-expressed equivalent of ID-A40U
B4: ID-A62U (VHH)
VHH: DVQLVESGGGLVQAGGSLRLSCESSISTFSSDAMGWFRQAPGKELEFLAAIGWSGAVTHYSDSVKGRFTISRDNAKNTVYLQMNSLRAEDTGRYYCAEDYDTDVWQYWGQGTQVTVSS
notes: V7R-2E9 with E1D, R45L, Q65K, K87R, S88A; produced in S. cerevisiae
B5: cynomolgus monkey IL-7Rα (receptor)
chain: ESGYAQNGDLEDAELDDYSFSCYSQLEVNGSQHSLTCAFEDPDVNTTNLEFEICGALVEVKCLSFRKLQEIYFIETKKFLLIGKSNICVKVGGKSLTCKKIDLTTIVKPEAPFDLSVIYREGANDFVVTFNTSHLQKKYVKVLMHDVAYRQEKDENKWMHVNLSSTKLTLLQRNLQPEAMYEIKVRSIPDHYFKGFWSEWSPSYYFRTPEINNSPGEMD
notes: also called cynomolgus IL-7Rα

Columns and labels:
[1] = target: T1, human IL-7Rα (human, UniProt P16871 21-239); experiment: cell-based or functional assay
T1 chain: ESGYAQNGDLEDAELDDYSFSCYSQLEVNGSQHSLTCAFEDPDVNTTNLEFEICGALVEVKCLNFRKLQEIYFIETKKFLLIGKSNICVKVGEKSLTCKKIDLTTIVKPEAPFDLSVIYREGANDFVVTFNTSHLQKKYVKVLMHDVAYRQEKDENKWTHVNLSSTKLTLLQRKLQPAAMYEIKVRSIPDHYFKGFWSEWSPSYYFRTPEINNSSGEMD

[2] = target: T2, recombinant human IL-7Rα-His6-Fc (human, UniProt P16871 21-239); experiment: IL-7/IL-7Rα-His6-Fc ELISA; inhibition of IL-7 binding to IL-7R
T2 construct: also called hIL-7R; not shown: His6 tag; Fc (captured by anti-human IgG Fc)
T2 chain: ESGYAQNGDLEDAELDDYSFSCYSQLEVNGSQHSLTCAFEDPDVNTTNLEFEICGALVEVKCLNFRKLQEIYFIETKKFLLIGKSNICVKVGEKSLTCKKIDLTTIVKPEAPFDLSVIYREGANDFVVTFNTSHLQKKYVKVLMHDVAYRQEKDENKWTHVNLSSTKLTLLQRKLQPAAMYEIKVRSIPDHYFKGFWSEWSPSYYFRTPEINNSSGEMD

[3] = target: T2, recombinant human IL-7Rα-His6-Fc; experiment: IL-7/IL-7R neutralising ELISA; inhibition of IL-7 binding to IL-7R
Procedure: (§1) A 7-point dilution series of the clones was prepared in 1% BSA (at 2× the assay concentration) starting at 300 nM and using a 3.2 dilution factor. […] Block buffer alone was also added to each plate as blank. […] TMB reaction was stopped after 30 minutes.

[4] = target: T1, human IL-7Rα; experiment: cell-based or functional assay
[5] = target: T2, recombinant human IL-7Rα-His6-Fc; experiment: IL-7/IL-7R neutralisation ELISA; inhibition of IL-7 binding to IL-7R
Procedure: A 7-point dilution series of the clones was prepared in 1% BSA (at 2× the assay concentration) starting at 300 nM and using a 3.2 dilution factor. […] Block buffer alone was also added to each plate as blank. […] TMB reaction was stopped after 30 minutes. […]

[6] = target: T2, recombinant human IL-7Rα-His6-Fc; experiment: IL-7/IL-7R neutralising ELISA; inhibition of IL-7 binding to IL-7R
Procedure: as §1
EC₅₀ values were generated in Graphpad prism using the ELISA signal blank corrected A450 data and ‘log(inhibitor) vs. response—Variable slope (four parameters)’ to fit curves and generate EC₅₀.

[7] = target: T2, recombinant human IL-7Rα-His6-Fc; experiment: IL-7/IL-7R neutralisation ELISA; inhibition of IL-7 binding to IL-7R
[8] = target: T2, recombinant human IL-7Rα-His6-Fc; experiment: TSLP/TSLPR/IL-7R ELISA; inhibition of L-TSLP/TSLP-R complex binding to plate-coated IL-7Rα-His6-Fc
Procedure: (§2) 96-well plates were coated with 0.25 μg/mL recombinant human IL-7Rα-His₆-Fc+ 5 μg/mL BSA and then blocked. […] Then the mixtures were incubated for 30 minutes to allow binding before adding to the IL-7Rα coated plates.

[9] = target: T2, recombinant human IL-7Rα-His6-Fc; experiment: Biacore; IL-7Rα-His6-Fc captured by anti-human IgG Fc, ICVD flowed over
[10] = target: T3, IL-6R (human, UniProt P08887 20-358, limits assumed); experiment: competition ELISA: ID-A40U premixed with serially diluted soluble receptor, then added to plate-coated human IL-7Rα; bound ICVD detected [left panel]
T3 sequence (looked up): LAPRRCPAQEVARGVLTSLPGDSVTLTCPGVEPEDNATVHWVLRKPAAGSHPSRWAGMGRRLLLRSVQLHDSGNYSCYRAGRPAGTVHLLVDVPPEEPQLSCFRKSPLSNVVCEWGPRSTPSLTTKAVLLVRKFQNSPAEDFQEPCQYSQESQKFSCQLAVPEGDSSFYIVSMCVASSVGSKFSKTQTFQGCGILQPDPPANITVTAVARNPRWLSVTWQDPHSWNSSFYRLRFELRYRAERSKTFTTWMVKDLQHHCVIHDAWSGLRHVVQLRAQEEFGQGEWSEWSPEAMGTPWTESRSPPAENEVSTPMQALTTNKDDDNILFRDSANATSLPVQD
Procedure: (§3) 96-well plates were coated with 0.5 μg/mL recombinant human IL-7Rα His₆-Fc +5 μg/mL BSA and then blocked. 0.5 nM of ICVD was mixed 1:1 with the test compounds of choice serially diluted in 1% BSA, then incubated for 30 minutes to allow binding before adding to the IL-7Rα coated plates. Following 2 hours incubation, bound ICVD was detected with 50 uL/well 1/20000 anti-FLAG-HRP Goat antibody (GeneTex, GTX21238), and the level of neutralisation of ICVD-IL-7Rα binding by the test compounds was determined.

[11] = target: T4, TNFR-2 (human, UniProt P20333 23-257); experiment: as above
T4 sequence (looked up): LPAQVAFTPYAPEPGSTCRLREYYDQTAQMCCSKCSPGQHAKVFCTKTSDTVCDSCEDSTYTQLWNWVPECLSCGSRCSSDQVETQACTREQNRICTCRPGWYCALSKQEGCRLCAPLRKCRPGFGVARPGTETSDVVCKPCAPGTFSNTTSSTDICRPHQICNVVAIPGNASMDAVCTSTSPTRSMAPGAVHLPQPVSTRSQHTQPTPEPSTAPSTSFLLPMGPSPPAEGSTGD
Procedure: as §3

[12] = target: T5, IL-9R (human, UniProt Q01113 41-270, limits assumed); experiment: as above
T5 sequence (looked up): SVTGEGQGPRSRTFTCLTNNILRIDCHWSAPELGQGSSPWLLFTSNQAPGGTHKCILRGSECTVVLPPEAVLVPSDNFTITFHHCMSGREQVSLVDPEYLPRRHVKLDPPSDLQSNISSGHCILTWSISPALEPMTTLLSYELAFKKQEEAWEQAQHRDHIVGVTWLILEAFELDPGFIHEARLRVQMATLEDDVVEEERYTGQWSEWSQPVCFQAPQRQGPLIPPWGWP
Procedure: as §3

[13] = target: B5; experiment: competition ELISA: ID-A40U premixed with serially diluted soluble IL-7R, then added to plate-coated human IL-7Rα-His6-Fc; bound ICVD detected
Procedure: as §3

[14] = target: T6, murine IL-7Rα (murine, UniProt P16872 21-239); experiment: as above
T6 construct: also called mouse IL-7R
T6 sequence (looked up): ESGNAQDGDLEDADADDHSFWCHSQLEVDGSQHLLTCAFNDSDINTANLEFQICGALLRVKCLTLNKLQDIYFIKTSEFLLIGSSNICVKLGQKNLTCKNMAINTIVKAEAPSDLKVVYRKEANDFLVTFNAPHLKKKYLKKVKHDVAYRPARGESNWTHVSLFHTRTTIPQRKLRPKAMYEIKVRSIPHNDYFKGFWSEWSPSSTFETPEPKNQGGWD
Procedure: as §3

[15] = target: T7, human IL-12Rβ1 (human, UniProt P42701 24-545, limits assumed); experiment: competition ELISA: ID-A40U premixed with serially diluted soluble receptor, then added to plate-coated human IL-7Rα; bound ICVD detected [right panel]
T7 construct: also called hIL-12Rβ1; IL-12Rα1 (as printed in the result sentence)
Procedure: as §3

[16] = target: IL-21R (human, UniProt Q9HBE5 20-232, limits assumed); experiment: as above
Sequence of IL-21R (Q9HBE5 20-232 limits assumed): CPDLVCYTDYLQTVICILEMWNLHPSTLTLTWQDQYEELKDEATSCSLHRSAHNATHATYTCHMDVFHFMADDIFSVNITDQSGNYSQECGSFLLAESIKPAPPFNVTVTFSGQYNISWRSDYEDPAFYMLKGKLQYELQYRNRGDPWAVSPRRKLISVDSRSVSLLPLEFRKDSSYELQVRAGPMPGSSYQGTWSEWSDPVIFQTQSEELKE
Procedure: as §3

[17] = target: B5; experiment: competition ELISA: A59U premixed with serially diluted soluble IL-7R, then added to plate-coated human IL-7Rα-His6-Fc; bound ICVD detected [left panel (cross-reactivity A59U]
Procedure: as §3

[18] = target: B5; experiment: competition ELISA: A62U premixed with serially diluted soluble IL-7R, then added to plate-coated human IL-7Rα-His6-Fc; bound ICVD detected [right panel (cross-reactivity A62U]
Procedure: as §3

[19] = target: T2, recombinant human IL-7Rα-His6-Fc; experiment: TSLP/TSLPR/IL-7R ELISA; inhibition of L-TSLP/TSLP-R complex binding to plate-coated IL-7Rα-His6-Fc
Procedure: as §2
A subtraction was performed on the data set before graphing which normalised to the highest concentration of antibody tested (to overcome a high level of background on the plate).

[20] = target: T2, recombinant human IL-7Rα-His6-Fc; experiment: IL-7/IL-7R neutralisation ELISA; inhibition of IL-7 binding to IL-7R
[21] = target: B4; experiment: competition ELISA: A62U premixed with serially diluted soluble IL-7R, then added to plate-coated human IL-7Rα-His6-Fc; bound ICVD detected [right panel (cross-reactivity A62U]
Procedure: as §3

[22] = target: B3; experiment: competition ELISA: A59U premixed with serially diluted soluble IL-7R, then added to plate-coated human IL-7Rα-His6-Fc; bound ICVD detected [left panel (cross-reactivity A59U]
Procedure: as §3

[23] = target: B2; experiment: competition ELISA: ID-A40U premixed with serially diluted soluble IL-7R, then added to plate-coated human IL-7Rα-His6-Fc; bound ICVD detected
Procedure: as §3

IL-7 induced pSTAT5 in hPBMCs EC50 [1]: 2.86 nM
EC50 [2]: 0.6 nM
EC50 [3]: 0.818 nM
IL-7 induced pSTAT5 in hPBMCs EC50 [4]: 2.86 nM
EC50 [5]: 0.37 to 0.67 nM
EC50 [6]: 0.368 nM
EC50 [7]: 0.818 nM
EC50 [8]: 0.32 nM
B1: V7R-2E9 (VHH)
VHH: EVQLVESGGGLVQAGGSLRLSCESSISTFSSDAMGWFRQAPGKEREFLAAIGWSGAVTHYSDSVQGRFTISRDNAKNTVYLQMNSLKSEDTGRYYCAEDYDTDVWQYWGQGTQVTVSS
notes: llama ICVD, primary clone, expressed in E. coli TG1; parent of the ID-A series; not shown: C-terminal FLAG and 6xHis tags from vector pMEK222

Binder: B2
EC50 [2]: 0.544 nM
Kd [9]: 0.078 nM
binding result [10]: no binding (tested: 100 ng/mL)
binding result [11]: no binding (tested: 100 ng/mL)
binding result [12]: no binding (tested: 100 ng/mL)
binding result [13]: binds
binding result [14]: no binding (tested: 100 ng/mL)
EC50 [7]: 0.544 nM
binding result [15]: no binding (tested: 100 ng/mL)
binding result [16]: no binding (tested: 100 ng/mL)

Binder: B3
binding result [17]: binds

Binder: B4
binding result [18]: binds
EC50 [19]: 0.74 nM
EC50 [20]: 0.4 nM

Binder: B5
IC50 (read off the curve) [21]: ~0.02 µg/mL
IC50 (read off the curve) [22]: ~0.03 µg/mL
IC50 (read off the curve) [23]: ~0.01 µg/mL
